Where two headings read alike, the source gives them in different places.

Data on one substance can be found in US20120083001A1.

The target of test [1] is β1 adrenergic receptor (rat) (UniProt P18090). Briefly: cell-based or functional assay.
For test [2] the target is unchanged. The experiment in a line: cell-based or functional assay. This is another data set of the same source.

β1 adrenergic receptor (rat), sequence (P18090 whole entry): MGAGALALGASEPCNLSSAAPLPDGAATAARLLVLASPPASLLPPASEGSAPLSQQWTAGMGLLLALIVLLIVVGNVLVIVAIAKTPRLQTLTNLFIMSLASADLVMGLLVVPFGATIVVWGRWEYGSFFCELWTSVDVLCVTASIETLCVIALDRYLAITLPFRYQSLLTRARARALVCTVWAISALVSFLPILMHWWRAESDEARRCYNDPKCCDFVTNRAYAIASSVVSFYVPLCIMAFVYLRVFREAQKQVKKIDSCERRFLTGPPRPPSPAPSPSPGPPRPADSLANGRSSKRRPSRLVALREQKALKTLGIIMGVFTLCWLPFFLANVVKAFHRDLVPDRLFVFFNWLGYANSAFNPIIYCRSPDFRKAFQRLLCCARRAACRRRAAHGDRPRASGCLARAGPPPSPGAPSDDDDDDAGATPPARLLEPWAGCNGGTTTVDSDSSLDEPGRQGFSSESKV

On to Gαi (C351G) (from UniProt B2RSH2 2-354), for which the Change Level in Current Density [pA/pF] (ISO 30 nM against no ISO) in test [1] is -9.14 pA/pF. In test [2], this substance had a Change Level in Current Density [pA/pF] (ISO 30 nM against no ISO) of -16.4 pA/pF; a Current Change Level [nA] of -0.2 nA; a membrane current value immediately after the pulse, ISO not supplied (whole-cell patch clamp) of -0.2 nA; a membrane current value, ISO supplied (whole-cell patch clamp) of 0.5 nA.
